Consider 18 sequences from the supplement of paper PMC12764529.

± gives the half width of the 95% confidence interval.

A short description of data set [1]: folding stability dG unfold from chymotrypsin proteolysis; higher = more stable. The procedure, abridged: (§1)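 K50 was inferred by Bayesian fitting of sequencing counts obtained after protease digestion of designed mini-proteins. Unfolding free energy was derived by comparison with a sequence-predicted unfolded-state K50 and a shared folded-state K50, for each protease or both combined. The mini-proteins were under 80 residues, had no cysteine, were carried in a PA-tagged cDNA display construct, and were kept only if AlphaFold2 dimer inter-PAE exceeded 15.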

Data set [2] in a line: folding stability dG unfold (combined trypsin and chymotrypsin); higher = more stable. The procedure, abridged: as §1
The nature of data set [3]: folding stability dG unfold from trypsin proteolysis; higher = more stable. The procedure, abridged: as §1

On to “SAGGSAGGSKIPPNQFIVRIEIKRRKPNGEKRKHEIIIPVGMPLDTLRDHAPPGYEITDIEVISAGGSAGGS [r12_597_TrROS]”, for which the “folding stability dG unfold” value is 1.8 ± 0.021 kcal/mol in data set [1], 1.6 ± 0.05 kcal/mol in data set [2] and 1.17 ± 0.023 kcal/mol in data set [3].
Turning to “SAGGSAGGSKITIKLIKNGEIVEEKEIEDKKTGKKIKIKAIKKDGKLYLVIEVDGKKYVIPLPSAGGSAGGS [r12_994_TrROS_Hall]”, the “folding stability dG unfold” value is 3.93 ± 0.089 kcal/mol in data set [1], 3.57 ± 0.39 kcal/mol in data set [2] and 2.02 ± 0.23 kcal/mol in data set [3].
With “SAGGSAGGSKKEYLVLVYNPATGEPFPILAPDDVPFEELAKKIADEILKGLPKDVKIEFVKLGSAGGSAGGS [r20_213_TrMRF]”, the “folding stability dG unfold” value is 0.795 ± 0.061 kcal/mol in data set [1], 0.874 ± 0.17 kcal/mol in data set [2] and 0.808 ± 0.086 kcal/mol in data set [3].
Regarding “SAGGSAGGSKKKITVKIEEVKLNPETGKLVLVKIKLPDGKELVFKTPEEIENLPGAEFEVYELSAGGSAGGS [r20_192_TrROS_Hall]”, the results for the “folding stability dG unfold” value in data set [1], in data set [2] and in data set [3] were 1.47 ± 0.13 kcal/mol, 1.45 ± 0.27 kcal/mol and 1.53 ± 0.14 kcal/mol, respectively.
Turning to “SAGGSAGGSKKKKKPKKKKYIVIKVDMSLEEVKKLISKLLGFEEGEKIEIVKVDPENKYIVIKSAGGSAGGS [r12_815_TrROS_Hall]”, the “folding stability dG unfold” value in data set [1] amounted to 2.35 ± 0.11 kcal/mol; in data set [2] it was 2.08 ± 0.27 kcal/mol; in data set [3] it was 2.01 ± 0.072 kcal/mol.
For the sequence “SAGGSAGGSKKKLTLTLKVEYVDEETGEKRTVTLTITAESEEEAKAALEELAKKLPPGARIEVSAGGSAGGS [r20_211_TrROS_Hall]”, the “folding stability dG unfold” value in data set [1] was 4.44 ± 0.11 kcal/mol; in data set [2], 4.21 ± 0.19 kcal/mol; in data set [3], 3.3 ± 0.16 kcal/mol.
Consider “SAGGSAGGSKKKVKVVKVEKPEGDYYVVTVYYEDGKLLKKVVFPKGVKPEEVLEKVKKLVEEESAGGSAGGS [r12_798_TrMRF]”, for which the “folding stability dG unfold” value in data set [1] was 2.82 ± 0.049 kcal/mol; in data set [2], 2.51 ± 0.076 kcal/mol; in data set [3] it was 1.95 ± 0.043 kcal/mol.
On to “SAGGSAGGSKKPIPVKVIETKPDPEIGGITTVELEFPDGSKATFTSIEDIEKIPDIEVEIKLGSAGGSAGGS [r20_192_TrMRF]”, for which the “folding stability dG unfold” value in data set [1] was determined as 0.639 ± 0.043 kcal/mol; in data set [2], 0.648 ± 0.056 kcal/mol; in data set [3] it was 0.591 ± 0.027 kcal/mol.
The like results for “SAGGSAGGSKKRTILIQFPNGSPEEAVDNIKNWLRALGNEPIPLEDVKIQWYPGNPGYFQIEISAGGSAGGS [r12_122_TrROS]” were, in that order, 2.94 ± 0.042 kcal/mol, 2.53 ± 0.12 kcal/mol and 1.81 ± 0.027 kcal/mol.
With “SAGGSAGGSKKVKIEINVVVPPGMTPEKAKQMAEEFAREIAEAYGGKDVKVKVRIMYIPPDQFSAGGSAGGS [r12_522_TrROS]”, the “folding stability dG unfold” value is 2.19 ± 0.066 kcal/mol in data set [1], 2.08 ± 0.13 kcal/mol in data set [2] and 2.04 ± 0.084 kcal/mol in data set [3].
The like results for “SAGGSAGGSKKVKVTIEYDKETGVVKVTVEDPETGEKYTVTAKFEFDKNGKLVKVEVVSIEKESAGGSAGGS [r12_791_TrROS_Hall]” were, in that order, 3.94 ± 0.11 kcal/mol, 3.67 ± 0.11 kcal/mol and 2.71 ± 0.14 kcal/mol.
With “SAGGSAGGSKLKPFPIKLPGDLSMTIVELPEDPRFIVTVWHPDGDKPIDSIEFEPDEFEANVGSAGGSAGGS [r20_190_TrMRF]”, the “folding stability dG unfold” value in data set [1] amounted to 0.793 ± 0.033 kcal/mol; in data set [2], 0.591 ± 0.078 kcal/mol; in data set [3], 0.285 ± 0.023 kcal/mol.
Consider “SAGGSAGGSKLTIMVKMDSAEDAEEEARSLLKELGIKPGMKEVKVSMFPRGNEYYAHVEIKFKSAGGSAGGS [r12_7_TrROS]”, for which the “folding stability dG unfold” value in data set [1] was found to be 0.759 ± 0.15 kcal/mol; in data set [2] it was 0.776 ± 0.12 kcal/mol; in data set [3], 0.672 ± 0.038 kcal/mol.
On to “SAGGSAGGSKPEIRKIKIYTKEGGKKIIPVNGTVIEIDGKKYKVKPNDKIKVPKNVKKIEPEGSAGGSAGGS [r12_779_TrMRF]”, for which the “folding stability dG unfold” value in data set [1] is 0.153 ± 0.19 kcal/mol; in data set [2] it was 0.028 ± 0.22 kcal/mol; in data set [3], -0.395 ± 0.25 kcal/mol.
With “SAGGSAGGSKPEPVKPVKLKVKLPGGEYEVEAVELPKGVVLVRNPADNSLAVITPDRLVVLPLSAGGSAGGS [r12_737_TrMRF]”, the “folding stability dG unfold” value in data set [1] is 0.0823 ± 0.14 kcal/mol; in data set [2], 0.468 ± 0.076 kcal/mol; in data set [3], 0.754 ± 0.024 kcal/mol.
As to “SAGGSAGGSKPEYVLRVKIYNEETGELVEEIEITVKSKEEALKALKKLLPKDNVKIEVEILPPSAGGSAGGS [r12_578_TrROS_Hall]”, the “folding stability dG unfold” value in data set [1] came to 3.09 ± 0.25 kcal/mol; in data set [2] it was 3.2 ± 0.17 kcal/mol; in data set [3], 3.34 ± 0.11 kcal/mol.
“SAGGSAGGSKPIVAPVSVEDLTLEGLKALVDSHPEGEVPIFVTRSDGKPLVITVLPDGELSLDSAGGSAGGS [r12_1054_TrMRF]”: the results for the “folding stability dG unfold” value in data set [1], in data set [2] and in data set [3] were -1.49 ± 0.31 kcal/mol, -0.318 ± 0.076 kcal/mol and 0.17 ± 0.019 kcal/mol, respectively.
With “SAGGSAGGSKPKEIETVTLKLTLKDPETGEEIEVTVELTRVRVDGKEYLILRVTDPDGKEIELSAGGSAGGS [r12_283_TrROS_Hall]”, the “folding stability dG unfold” value in data set [1] stood at 4.115 ± 0.039 kcal/mol; in data set [2], 3.81 ± 0.09 kcal/mol; in data set [3], 3.13 ± 0.12 kcal/mol.
